{
  "source": "IntAct's records for PubMed 15023544",
  "parents": {"B1": {"name": "14-3-3 protein zeta/delta (Homo sapiens), P63104 (parent)", "chain": "MDKNELVQKAKLAEQAERYDDMAACMKSVTEQGAELSNEERNLLSVAYKNVVGARRSSWRVVSSIEQKTEGAEKKQQMAREYREKIETELRDICNDVLSLLEKFLIPNASQAESKVFYLKMKGDYYRYLAEVAAGDDKKGIVDQSQQAYQEAFEISKKEMQPTHPIRLGLALNFSVFYYEILNSPEKACSLAKTAFDEAIAELDTLSEESYKDSTLIMQLLRDNLTLWTSDTQGDEAEAGEGGEN"}},
  "data": [
    {"variants_of": "B1", "settings": "with m3k5_human MAP3K5, Q99683", "values": [
      {"variant": "MDKNELVQKAKLAEQAERYDDMAACMKSVTEQGAELSNEERNLLSVAYENVVGARESSWEVVSSIEQKTEGAEKKQQMAREYREKIETELRDICNDVLSLLEKFLIPNASQAESKVFYLKMKGDYYRYLAEVAAGDDKKGIVDQSQQAYQEAFEISKKEMQPTHPIRLGLALNFSDFYYEILNSPEKACSLAKTAFDEAIAELDTLSEESYKDSTLIMQELRDNLTLWTSDTQGDEAEAGEGGEN", "note": "[K49E;R56E;R60E;V176D;L220E]", "effect of a mutation on the interaction": "decreasing interaction"}
    ]}
  ]
}
